The source of these data is article PMC12663309 (2025).

The assay has as its target human NEK7 recombinant protein (HY-P75935, MCE) (human, UniProt Q8TDX7 1-302, RED-NHS dye label (in the MST only)). As to the kind of experiment: MST.

Chain of human NEK7 recombinant protein (HY-P75935, MCE) (Q8TDX7 whole entry, one chain of several): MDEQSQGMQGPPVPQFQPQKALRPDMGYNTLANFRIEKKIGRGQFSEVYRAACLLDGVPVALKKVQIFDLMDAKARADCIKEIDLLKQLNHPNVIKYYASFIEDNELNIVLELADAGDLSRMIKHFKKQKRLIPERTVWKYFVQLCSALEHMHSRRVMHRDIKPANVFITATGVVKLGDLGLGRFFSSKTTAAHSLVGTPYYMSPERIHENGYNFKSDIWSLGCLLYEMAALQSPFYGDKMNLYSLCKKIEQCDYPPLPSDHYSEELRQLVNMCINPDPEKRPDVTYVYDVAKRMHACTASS

B1: human SDHB recombinant protein (Ag29868, Proteintech) (natural protein)
chain: AQTAAATAPRIKKFAIYRWDPDKAGDKPHMQTYEVDLNKCGPMVLDALIKIKNEVDSTLTFRRSCREGICGSCAMNINGGNTLACTRRIDTNLNKVSKIYPLPHMYVIKDLVPDLSNFYAQYKSIEPYLKKKDESQEGKQQYLQSIEEREKLDGLYECILCACCSTSCPSYWWNGDKYLGPAVLMQAYRWMIDSRDDFTEERLAKLQDPFSLYRCHTIMNCTRTCPKGLNPGKAIAEIKKMMATYKEKKASV
As a reminder, the Kd is the equilibrium constant for the complex coming apart. For the molecule B1, the dissociation constant Kd is 19.5 µM.
